Source: patent publication US20240181074A1 (SHENZHEN ENDURING BIOTECH, published 2024)

What was measured:
[1] = target: T1, human CD19-Fc protein (AcroBiosystems, Cat. CD19-H5259 / Code CD9-H5259) (human, UniProt P15391 20-291); experiment: BiaCore SPR, ligand captured by Fc capture
T1 construct: not shown: Fc of the bought CD19-Fc
T1 sequence (looked up): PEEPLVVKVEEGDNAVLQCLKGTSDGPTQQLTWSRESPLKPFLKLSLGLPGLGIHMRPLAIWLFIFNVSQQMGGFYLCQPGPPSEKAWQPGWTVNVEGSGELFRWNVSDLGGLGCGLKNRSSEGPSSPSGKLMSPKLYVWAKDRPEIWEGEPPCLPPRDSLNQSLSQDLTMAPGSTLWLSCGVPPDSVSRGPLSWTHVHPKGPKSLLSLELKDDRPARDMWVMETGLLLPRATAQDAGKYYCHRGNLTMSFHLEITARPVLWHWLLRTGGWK
From the text: General procedure: Diluted human CD19 (AcroBiosystems, Cat. CD19-H5259) or human CD3E&3D (AcroBiosystems, Cat. CDD-H52W0) were captured on the sensor chip through Fc capture method. The capture time for human CD3E & CD3D and for human CD19 was set for 12 s and 12-30 s respectively and capture flow rate was […]. Each sample tested was serially diluted into 6-8 concentrations. The association time and dissociation time for the analytes were set for 180 s and 420 s respectively, and the flow rate for the analyte was set at […]. For surface regeneration, 10 mM Glycine-HCl buffer was used; the contact time was set for 30 s and the flow rate was […]. Flow cell 1 and blank injection of buffer in each cycle were used as double references for Response Units subtraction. All data were processed using BiaCore T2000 Evaluation software (version 3.1).

human CD19 on cells = target: T2, human CD19 on cells (human, UniProt P15391 20-556); experiment: cell-based or functional assay
T2 sequence (looked up): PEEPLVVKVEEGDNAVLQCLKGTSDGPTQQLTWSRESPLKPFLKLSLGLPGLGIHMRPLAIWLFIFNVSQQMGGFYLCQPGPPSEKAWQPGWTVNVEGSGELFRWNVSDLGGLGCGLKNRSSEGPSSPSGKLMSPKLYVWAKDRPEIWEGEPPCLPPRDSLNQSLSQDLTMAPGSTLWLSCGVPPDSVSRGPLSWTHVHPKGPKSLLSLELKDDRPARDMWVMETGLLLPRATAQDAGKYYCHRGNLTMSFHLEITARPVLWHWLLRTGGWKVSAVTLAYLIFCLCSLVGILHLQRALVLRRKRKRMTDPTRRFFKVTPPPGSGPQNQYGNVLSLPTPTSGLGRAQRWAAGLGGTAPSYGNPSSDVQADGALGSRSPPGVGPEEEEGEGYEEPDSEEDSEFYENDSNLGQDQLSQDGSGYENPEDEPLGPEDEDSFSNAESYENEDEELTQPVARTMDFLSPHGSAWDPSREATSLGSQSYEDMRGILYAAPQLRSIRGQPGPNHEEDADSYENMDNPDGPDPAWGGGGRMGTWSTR

Binder | Kd [1] [nM] | koff [1] [s⁻¹] | kon [1] [M⁻¹ s⁻¹] | EC50 of cell killing (MTS cytotoxicity), Nalm-6, E:T=5:1 (human CD19 on cells) [µg/mL] | EC50 of cell killing (MTS cytotoxicity), Nalm-6, E:T=10:1 (human CD19 on cells) [µg/mL] | EC50 of cell killing (MTS cytotoxicity), REH (human CD19 on cells) [µg/mL] | EC50 of cell killing (MTS cytotoxicity), Raji (human CD19 on cells) [µg/mL]
anti-CD19 scFv (SCACD19) (scFv) scFv: DIQLTQSPASLAVSLGQRATISCKASQSVDYDGDSYLNWYQQIPGQPPKLLIYDASNLVSGIPPRFSGSGSGTDFTLNIHPVEKVDAATYHCQQSTEDPWTFGGGTKLEIKGCGGGSGGGGSGGGGSQVQLQQSGAELVRPGSSVKISCKASGYAFSSYWMNWVKQRPGQGLEWIGQIWPGDGDTNYNGKFKGKATLTADESSSTAYMQLSSLASEDSAVYFCARRETTTVGRYYYAMDYWGQGTTVTVSSHHHHHH | 0.0653 | 0.000343 | 5.26e+06 | – | – | – | –
anti-CD19 scFv-Linker (anti-CD19-Linker) (scFv, conjugated to a linker (linker is a much smaller PEG11); the residue is not given, Linker conjugate of SCACD19; also called SCACD19-linker) scFv: DIQLTQSPASLAVSLGQRATISCKASQSVDYDGDSYLNWYQQIPGQPPKLLIYDASNLVSGIPPRFSGSGSGTDFTLNIHPVEKVDAATYHCQQSTEDPWTFGGGTKLEIKGCGGGSGGGGSGGGGSQVQLQQSGAELVRPGSSVKISCKASGYAFSSYWMNWVKQRPGQGLEWIGQIWPGDGDTNYNGKFKGKATLTADESSSTAYMQLSSLASEDSAVYFCARRETTTVGRYYYAMDYWGQGTTVTVSSHHHHHH | 0.111 | 0.000309 | 2.79e+06 | – | – | – | –
JY108 (PEGylated BsAb anti-CD3 x anti-CD19) (bispecific antibody, conjugated through a linker to the branched terminal of mPEG (structure given only as a drawing); residue not given, also called PEGylated T-BsAb JY108) scFv 1: DIQLTQSPASLAVSLGQRATISCKASQSVDYDGDSYLNWYQQIPGQPPKLLIYDASNLVSGIPPRFSGSGSGTDFTLNIHPVEKVDAATYHCQQSTEDPWTFGGGTKLEIKGCGGGSGGGGSGGGGSQVQLQQSGAELVRPGSSVKISCKASGYAFSSYWMNWVKQRPGQGLEWIGQIWPGDGDTNYNGKFKGKATLTADESSSTAYMQLSSLASEDSAVYFCARRETTTVGRYYYAMDYWGQGTTVTVSS scFv 2: not shown | 1.44 | 0.000566 | 392000 | 0.0376 | 0.0147 | 0.0104 | 0.159
